For one data set, the target named is T1, SPDEF (Homo sapiens, UniProt O95238 1-335).
T1 sequence: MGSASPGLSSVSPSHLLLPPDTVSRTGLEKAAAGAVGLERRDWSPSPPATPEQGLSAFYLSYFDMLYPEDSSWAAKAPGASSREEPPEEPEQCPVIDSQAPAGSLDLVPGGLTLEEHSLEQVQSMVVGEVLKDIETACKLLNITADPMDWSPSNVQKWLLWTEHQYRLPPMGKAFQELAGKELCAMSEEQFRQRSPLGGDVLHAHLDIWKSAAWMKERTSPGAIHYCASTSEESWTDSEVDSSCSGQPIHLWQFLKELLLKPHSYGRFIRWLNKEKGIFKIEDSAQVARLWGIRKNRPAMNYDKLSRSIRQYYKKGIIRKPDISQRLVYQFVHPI
In words: BLI (OCTET); EMSA: 25 mM HEPES pH 8.0, 100 mM NaCl, 50 mM KAc, 5 mM MgCl2, 5% glycerol, 1 mM DTT, 0.1 mg/mL BSA, ~22 C, 5 nM probe; OCTET: 50 mM HEPES pH 8.0, 100 mM NaCl, 50 mM KAc, 5 mM MgCl2, 40 mM glutathione, 5 mg/mL BSA, 0.05% Tween-20. Particulars: protein: recombinant; tags: N-terminal GST; label: 5' biotin on strand 2 (Bio-T7 primer); blunt.

The target of the next data set is T2, ETS2 (Homo sapiens, UniProt P15036 1-469).
T2 sequence: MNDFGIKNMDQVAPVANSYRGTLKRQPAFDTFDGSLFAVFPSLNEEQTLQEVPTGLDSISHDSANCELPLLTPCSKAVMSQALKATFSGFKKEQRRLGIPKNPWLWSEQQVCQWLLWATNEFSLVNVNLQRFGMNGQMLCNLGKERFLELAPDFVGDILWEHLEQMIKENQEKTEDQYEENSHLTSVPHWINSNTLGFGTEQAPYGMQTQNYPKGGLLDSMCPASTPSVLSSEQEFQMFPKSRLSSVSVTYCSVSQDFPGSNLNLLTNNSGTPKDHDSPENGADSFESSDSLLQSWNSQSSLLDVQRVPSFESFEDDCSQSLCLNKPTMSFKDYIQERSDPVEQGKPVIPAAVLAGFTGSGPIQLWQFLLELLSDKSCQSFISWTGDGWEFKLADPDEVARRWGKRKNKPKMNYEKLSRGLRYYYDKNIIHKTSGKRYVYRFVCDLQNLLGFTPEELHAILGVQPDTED
The data set is described as above. Particulars: protein: recombinant; tags: N-terminal GST; label: 5' biotin on strand 2 (Bio-T7 primer); blunt.

We go through one molecule from article PMC7862700, “An all-to-all approach to the identification of sequence-specific readers for epigenetic DNA modifications on cytosine”.

B1: ETS family probe (dsDNA)
DNA 1: ACTTCCGGTTATAGTGAGTGCTATTA
DNA 2: TAATAGCACTCACTATAACCGGAAGT
For the molecule B1, the Kd with SPDEF was 132 nM; in the data set with ETS2, 1.8 nM.
